± gives the standard deviation of the averaged measurements.
Experiment: total protein half-life in vivo (active degradation + dilution); higher = more stable protein
[1] = E. coli NCM3722 delta-clpP delta-lon delta-hslV, growth: N-lim chemostat, doubling time 6 h
[2] = E. coli NCM3722 delta-clpP, growth: N-lim chemostat, doubling time 6 h
[3] = E. coli NCM3722 delta-hslV, growth: N-lim chemostat, doubling time 6 h
[4] = E. coli NCM3722 delta-lon, growth: N-lim chemostat, doubling time 6 h
[5] = E. coli NCM3722 delta-smpB, growth: N-lim chemostat, doubling time 6 h
[6] = wild type E. coli NCM3722, growth: C-lim chemostat, doubling time 3 h
[7] = wild type E. coli NCM3722, growth: C-lim chemostat, doubling time 6 h
[8] = wild type E. coli NCM3722, growth: C-lim chemostat, doubling time 12 h
[9] = wild type E. coli NCM3722, growth: P-lim chemostat, doubling time 6 h
[10] = wild type E. coli NCM3722, growth: P-lim chemostat, doubling time 12 h
[11] = wild type E. coli NCM3722, growth: N-lim chemostat, doubling time 6 h
[12] = wild type E. coli NCM3722, growth: N-lim chemostat, doubling time 12 h

Sequence	total protein half-life in vivo [1]	total protein half-life in vivo [2]	total protein half-life in vivo [3]	total protein half-life in vivo [4]	total protein half-life in vivo [5]	total protein half-life in vivo [6]	total protein half-life in vivo [7]	total protein half-life in vivo [8]	total protein half-life in vivo [9]	total protein half-life in vivo [10]	total protein half-life in vivo [11]	total protein half-life in vivo [12]
MEQLRAELSHLLGEKLSRIECVNEKADTALWALYDSQGNPMPLMARSFSTPGKARQLAWKTTMLARSGTVRMPTIYGVMTHEEHPGPDVLLLERMRGVSVEAPARTPERWEQLKDQIVEALLAWHRQDSRGCVGAVDNTQENFWPSWYRQHVEVLWTTLNQFNNTGLTMQDKRILFRTRECLPALFEGFNDNCVLIHGNFCLRSMLKDSRSDQLLAMVGPGLMLWAPREYELFRLMDNSLAEDLLWSYLQRAPVAESFIWRRWLYVLWDEVAQLVNTGRFSRRNFDLASKSLLPWLA [P0AB03]	5.11 h	4.02 h	2.54 ± 0.47 h	2.51 h	1.57 h	2.16 ± 0.1 h	3.92 ± 0.21 h	6.84 ± 0.48 h	3.8 h	7.86 h		
MSNNGSSPLVLWYNQLGMNDVDRVGGKNASLGEMITNLSGMGVSVPNGFATTADAFNQFLDQSGVNQRIYELLDKTDIDDVTQLAKAGAQIRQWIIDTPFQPELENAIREAYAQLSADDENASFAVRSSATAEDMPDASFAGQQETFLNVQGFDAVLVAVKHVFASLFNDRAISYRVHQGYDHRGVALSAGVQRMVRSDLASSGVMFSIDTESGFDQVVFITSAWGLGEMVVQGAVNPDEFYVHKPTLAANRPAIVRRTMGSKKIRMVYAPTQEHGKQVKIEDVPQEQRDIFSLTNEEVQELAKQAVQIEKHYGRPMDIEWAKDGHTGKLFIVQARPETVRSRGQVMERYTLHSQGKIIAEGRAIGHRIGAGPVKVIHDISEMNRIEPGDVLVTDMTDPDWEPIMKKASAIVTNRGGRTCHAAIIARELGIPAVVGCGDATERMKDGENVTVSCAEGDTGYVYAELLEFSVKSSSVETMPDLPLKVMMNVGNPDRAFDFACLPNEGVGLARLEFIINRMIGVHPRALLEFDDQEPQLQNEIREMMKGFDSPREFYVGRLTEGIATLGAAFYPKRVIVRLSDFKSNEYANLVGGERYEPDEENPMLGFRGAGRYVSDSFRDCFALECEAVKRVRNDMGLTNVEIMIPFVRTVDQAKAVVEELARQGLKRGENGLKIIMMCEIPSNALLAEQFLEYFDGFSIGSNDMTQLALGLDRDSGVVSELFDERNDAVKALLSMAIRAAKKQGKYVGICGQGPSDHEDFAAWLMEEGIDSLSLNPDTVVQTWLSLAELKK	4.83 ± 0.48 h	4.47 ± 0.29 h	4.6 ± 0.19 h	4.853 ± 0.045 h	4.21 ± 0.38 h	3.08 ± 0.22 h	5.77 ± 0.31 h	10.1 ± 1 h	5.9 ± 0.38 h	11.7 ± 0.34 h	4.5 ± 0.17 h	7.03 ± 0.19 h
MQLKRVAEAKLPTPWGDFLMVGFEELATGHDHVALVYGDISGHTPVLARVHSECLTGDALFSLRCDCGFQLEAALTQIAEEGRGILLYHRQEGRNIGLLNKIRAYALQDQGYDTVEANHQLGFAADERDFTLCADMFKLLGVNEVRLLTNNPKKVEILTEAGINIVERVPLIVGRNPNNEHYLDTKAEKMGHLLNK [P0A7I7]	4.5 ± 0.35 h	4.52 ± 0.67 h	4.48 ± 0.35 h	4.54 ± 0.19 h	4.54 ± 0.23 h	2.92 ± 0.095 h	5.1 ± 0.3 h	8.93 ± 0.54 h	6.08 ± 0.73 h	10.3 ± 0.8 h	4.27 ± 0.17 h	6.85 ± 0.2 h
MKRKVLLIPLIIFLAIAAALLWQLARNAEGDDPTNLESALIGKPVPKFRLESLDNPGQFYQADVLTQGKPVLLNVWATWCPTCRAEHQYLNQLSAQGIRVVGMNYKDDRQKAISWLKELGNPYALSLFDGDGMLGLDLGVYGAPETFLIDGNGIIRYRHAGDLNPRVWEEEIKPLWEKYSKEAAQ [P0AA86]	6.39 ± 0.1 h				6.09 ± 0.34 h	3 ± 0.084 h	6.112 ± 0.034 h	13.3 ± 1.2 h	5.3 h	12.5 ± 1.7 h	6.16 ± 0.32 h	
MAISIKTPEDIEKMRVAGRLAAEVLEMIEPYVKPGVSTGELDRICNDYIVNEQHAVSACLGYHGYPKSVCISINEVVCHGIPDDAKLLKDGDIVNIDVTVIKDGFHGDTSKMFIVGKPTIMGERLCRITQESLYLALRMVKPGINLREIGAAIQKFVEAEGFSVVREYCGHGIGRGFHEEPQVLHYDSRETNVVLKPGMTFTIEPMVNAGKKEIRTMKDGWTVKTKDRSLSAQYEHTIVVTDNGCEILTLRKDDTIPAIISHDE [P0AE18]	5.22 ± 1 h	4.545 ± 0.041 h	4.71 ± 0.14 h	5.3 ± 0.74 h	4.36 ± 0.17 h	3.53 ± 0.17 h	5.52 ± 0.18 h	10.4 ± 0.64 h	6.04 ± 0.15 h	12.19 ± 0.095 h	4.42 ± 0.58 h	6.93 ± 0.49 h
MDLQHWQAQFENWLKNHHQHQDAAHDVCHFRRVWATAQKLAADDDVDMLVILTACYFHDIVSLAKNHPQRQRSSILAAEETRRLLREEFEQFPAEKIEAVCHAIAAHSFSAQIAPLTTEAKIVQDADRLEALGAIGLARVFAVSGALGVALFDGEDPFAQHRPLDDKRYALDHFQTKLLKLPQTMQTARGKQLAQHNAHFLVEFMAKLSAELAGENEGVDHKVIDAFSSAG	4.36 ± 0.052 h	3.48 ± 0.37 h	2.72 h		2.92 ± 0.03 h	2.09 ± 0.078 h			2.83 ± 0.28 h	4.67 ± 0.13 h	2.29 h	3.19 h
MSETASWQPSASIPNLLKRAAIMAEIRRFFADRGVLEVETPCMSQATVTDIHLVPFETRFVGPGHSQGMNLWLMTSPEYHMKRLLVAGCGPVFQLCRSFRNEEMGRYHNPEFTMLEWYRPHYDMYRLMNEVDDLLQQVLDCPAAESLSYQQAFLRYLEIDPLSADKTQLREVAAKLDLSNVADTEEDRDTLLQLLFTFGVEPNIGKEKPTFVYHFPASQASLAQISTEDHRVAERFEVYYKGIELANGFHELTDAREQQQRFEQDNRKRAARGLPQHPIDQNLIEALKVGMPDCSGVALGVDRLVMLALGAETLAEVIAFSVDRA [P0A8N7]	5.63 h	4.37 h	3.95 h	3.35 h	3.93 ± 0.61 h	2.71 ± 0.4 h	6.14 h	9.92 h	6.35 ± 0.51 h	14.41 ± 0.11 h	3.34 h	
MSKLLDRFRYFKQKGETFADGHGQVMHSNRDWEDSYRQRWQFDKIVRSTHGVNCTGSCSWKIYVKNGLVTWEIQQTDYPRTRPDLPNHEPRGCPRGASYSWYLYSANRLKYPLIRKRLIELWREALKQHSDPVLAWASIMNDPQKCLSYKQVRGRGGFIRSNWQELNQLIAAANVWTIKTYGPDRVAGFSPIPAMSMVSYAAGTRYLSLLGGTCLSFYDWYCDLPPASPMTWGEQTDVPESADWYNSSYIIAWGSNVPQTRTPDAHFFTEVRYKGTKTIAITPDYSEVAKLCDQWLAPKQGTDSALAMAMGHVILKEFHLDNPSDYFINYCRRYSDMPMLVMLEPRDDGSYVPGRMIRASDLVDGLGESNNPQWKTVAVNTAGELVVPNGSIGFRWGEKGKWNLESIAAGTETELSLTLLGQHDAVAGVAFPYFGGIENPHFRSVKHNPVLVRQLPVKNLTLVDGNTCPVVSVYDLVLANYGLDRGLEDENSAKDYAEIKPYTPAWGEQITGVPRQYIETIAREFADTAHKTHGRSMIILGAGVNHWYHMDMNYRGMINMLIFCGCVGQSGGGWAHYVGQEKLRPQTGWLPLAFALDWNRPPRQMNSTSFFYNHSSQWRYEKVSAQELLSPLADASKYSGHLIDFNVRAERMGWLPSAPQLGRNPLGIKAEADKAGLSPTEFTAQALKSGDLRMACEQPDSSSNHPRNLFVWRSNLLGSSGKGHEYMQKYLLGTESGIQGEELGASDGIKPEEVEWQTAAIEGKLDLLVTLDFRMSSTCLFSDIVLPTATWYEKDDMNTSDMHPFIHPLSAAVDPAWESRSDWEIYKGIAKAFSQVCVGHLGKETDVVLQPLLHDSPAELSQPCEVLDWRKGECDLIPGKTAPNIVAVERDYPATYERFTSLGPLMDKLGNGGKGISWNTQDEIDFLGKLNYTKRDGPAQGRPLIDTAIDASEVILALAPETNGHVAVKAWQALGEITGREHTHLALHKEDEKIRFRDIQAQPRKIISSPTWSGLESDHVSYNAGYTNVHELIPWRTLSGRQQLYQDHPWMRAFGESLVAYRPPIDTRSVSEMRQIPPNGFPEKALNFLTPHQKWGIHSTYSENLLMLTLSRGGPIVWISETDARELTIVDNDWVEVFNANGALTARAVVSQRVPPGMTMMYHAQERIMNIPGSEVTGMRGGIHNSVTRVCPKPTHMIGGYAQLAWGFNYYGTVGSNRDEFIMIRKMKNVNWLDDEGRDQVQEAKK	6.1 ± 1 h	5.33 ± 0.2 h	6.53 ± 0.28 h	6.11 ± 1.5 h	5.8 ± 0.67 h	2.8 ± 0.2 h	6.25 ± 1.3 h	11.5 ± 1.3 h	5.7 ± 0.32 h	11.4 ± 0.43 h	5.956 ± 0.043 h	12.43 ± 0.018 h
MSTRTPSSSSSRLMLTIGLCFLVALMEGLDLQAAGIAAGGIAQAFALDKMQMGWIFSAGILGLLPGALVGGMLADRYGRKRILIGSVALFGLFSLATAIAWDFPSLVFARLMTGVGLGAALPNLIALTSEAAGPRFRGTAVSLMYCGVPIGAALAATLGFAGANLAWQTVFWVGGVVPLILVPLLMRWLPESAVFAGEKQSAPPLRALFAPETATATLLLWLCYFFTLLVVYMLINWLPLLLVEQGFQPSQAAGVMFALQMGAASGTLMLGALMDKLRPVTMSLLIYSGMLASLLALGTVSSFNGMLLAGFVAGLFATGGQSVLYALAPLFYSSQIRATGVGTAVAVGRLGAMSGPLLAGKMLALGTGTVGVMAASAPGILVAGLAVFILMSRRSRIQPCADA								5.24 h				
